Source: the nanobody polyreactivity screen of Harvey et al. (2022)

Experiment: yeast display, Sf9 membrane polyspecificity reagent, FACS + sequencing; frameworks hold sequencing errors
Summary of the method: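 Sorting gates, low and high (top ~1%), were placed on anti-HA fluorescence to track expression and on streptavidin fluorescence to track reagent binding. A clone's polyreactivity label is taken from the gate it came out of. The reagent was 10% biotinylated, detergent-solubilized Sf9 membrane, applied for 1 hour at 4 °C to galactose-induced yeast display cells.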

Row | Sequence | polyreactivity (PSR sort gate)
1 | QVQLVESGGGLVQAGGSLRLSCAASGFTFTSNIMGWYRQATGKERELVADISASDGRTYYADSVKGRFTISRDNAMNTVYLQMNSLKPEDTAVYYCNVSSRRLRGLDYWGQGTQVTVSS | low polyreactivity
2 | QVQLVESGGGLVQAGGSLRLSCAASGFTFTSYTMGWYRQAPGKERELVAAISYSGGNTYYADSVKGRFTISRDNAKNTVYLQMNSLKQEDTAVYYCAARYWYDSSNYSYDYWGQGTQVTVSS | low polyreactivity
3 | QVQLVESGGGLVQAGGSLRLSCAASGFTFTSYVMGWSRQAPGKEREFVAAITRSAGGTYYADSVKGRFTISRDNAKNTVYLQMNSLKPEDTAVYYCAAVYRSGSRYYLGWYNYWGQGTQVTVSS | high polyreactivity
4 | QVQLVESGGGLVQAGGSLRLSCAASGFTFTTNAMGWYRQAPGKERELVAAISKRGTRTYYADSVKGRFTISRDNAKNTVYLQMNSLKPEDTAVYYCAAASVAGDKFDYWGQGSQVTVSS | high polyreactivity
5 | QVQLVESGGGLVQAGGSLRLSCAASGFTFTTYAMGWYRQAPGKEREFVAAITKRGGRTYYADSVKGRFTISRDYAKNTVYVQMNSLKPEDTAVYYCNKVVHSFPFPYRYDMDYWGQGTQVTVSS | high polyreactivity
6 | QVQLVESGGGLVQAGGSLRLSCAASGFTFTTYAMGWYRQAPGKERELVARISRRSGSTYYADSVKGRFTISRDNAKYTVYLQMNSLKPEDTAVYYCNADVDRSTTIFDYWGQGTQVTVSS | high polyreactivity
7 | QVQLVESGGGLVQAGGSLRLSCAASGFTFTWYAMGWYRQAPGKERELVASISRSGGSTYYADSVKGRFTISRDNAKNTVYLQMNSLKPEDTAVYYCAAEIWLEYVGYDYWGQGTQVTVSS | high polyreactivity
8 | QVQLVESGGGLVQAGGSLRLSCAASGFTFTWYVMGWYRQAPGKERELVAAISRSGGSTYYADSVKGRFTISRDNAKNTVYLQMNSLKPEDTAVYYCAAVGTSRYDYWGQGTQGTVSS | high polyreactivity
9 | QVQLVESGGGLVQAGGSLRLSCAASGFTFTYNAMGWYRKAPGKERELVAALTANGGGTNYADSVKGRFTISRDNAKNTVYLQMNSLKPEDTAVYYCAATIVVAVFESLGFYWYTEDNYWGQGTQVTVSS | low polyreactivity
10 | QVQLVESGGGLVQAGGSLRLSCAASGFTFTYNAMGWYRQAPGKERELVAGISWRGGTTYYADSVKGRFTISRDNAKNTVYLQMNSLKPEDTAVYYCAARNYYRGSGWPSNRGYYWGQGTQVTVSS | high polyreactivity
11 | QVQLVESGGGLVQAGGSLRLSCAASGFTFTYNDMGWYRQAPGKEREFVAAISSTGGSTNYADSVKGRFTISRDNAKNTVYLQMNSLKPEDTAGYYCATESYDSYGLYDYWGQGTQVTVSS | low polyreactivity
12 | QVQLVESGGGLVQAGGSLRLSCAASGFTFTYNDMGWYRQAPGKEREFVAAISSTGGSTYYADSVKGRFTISRDNAKNTVYLQMNSLIPEDTAVYYCAAEDSWYWDAWFDYWGQGTQVTVSS | low polyreactivity
13 | QVQLVESGGGLVQAGGSLRLSCAASGFTFTYNDMGWYRQAPGKEREFVAAISSTGGSTYYADSVQGRFTISRDNAKNTVYLQMNSLKPEDTAVYYCAAEDSWYWDAWFDYWGQGTQVTVSS | low polyreactivity
14 | QVQLVESGGGLVQAGGSLRLSCAASGFTFTYYAMGWYRQAPGKERELVAGISRSGGSTYYADSVKGRFTISRDNAKNTVYLQMNSLKPEDTAVYYCAATAYSPRGKRYDSWGQGTQVTVSS | high polyreactivity
15 | QVQLVESGGGLVQAGGSLRLSCAASGFTFTYYTMGWYRQAPGKERELVAAISYSGGSTYYADSVKGRFTISRDNAKNTVYLQMNSLKPEDTAVYYCNAVTSWAGSLDYWGQGTQVTVSS | high polyreactivity
16 | QVQLVESGGGLVQAGGSLRLSCAASGFTFVDNAMGWYRQAPGKERELVAVIDFNDGTTYYADSVKGRFTISRDNAKNSVYLQMNSLKPEDTEVYYCNVDSSLILWVEYDYWGQGTQVTVSS | low polyreactivity
